Source: publication PMC4357705, “Human Rap1 modulates TRF2 attraction to telomeric DNA”

Tests used:
[1] = biological target: Rap1 without His-tag, labelled with Alexa Fluor 488 (human) (UniProt Q9NYB0); assay: fluorescence polarisation; fluorescence anisotropy; TRF2noHis titrated into 100 nM Rap1noHis labelled with Alexa Fluor 488; 50 mM NaCl, 50 mM sodium phosphate pH 7.0, 25 C; concentration as TRF2 dimer
[2] = biological target: Rap1, full-length, N-terminal His6-tag, labelled with Alexa Fluor 594 (human) (UniProt Q9NYB0); assay: fluorescence polarisation; fluorescence anisotropy; TRF2 titrated into 100 nM Rap1 labelled with Alexa Fluor 594; PBST (Phosphate Buffered Saline with Tween 20, ~140 mM NaCl); concentration as TRF2 dimer
[3] = biological target: Rap1, full-length, N-terminal His6-tag, labelled with Alexa Fluor 594 (human) (UniProt Q9NYB0); assay: fluorescence polarisation; fluorescence anisotropy; TRF2 titrated into 100 nM Rap1 labelled with Alexa Fluor 594; 50 mM NaCl, 50 mM sodium phosphate pH 7.0 with 1 mM DTT; concentration as TRF2 dimer
Rap1 [4] = biological target: T1, Rap1 (human, UniProt Q9NYB0 1-399); assay: fluorescence anisotropy; FA: 50 mM NaCl, 50 mM sodium phosphate pH 7.0, 25 °C, 7.5 nM DNA; EMSA: same buffer, 15 min on ice, 5% (or 4%) PAGE in 0.25x TBE at 4 °C; SPR: PBST; details: protein: recombinant; tags: N-terminal His6; label: Alexa Fluor 488 (FA); 5' biotin on S6 in SPR; 3' overhang 6 nt
T1 sequence: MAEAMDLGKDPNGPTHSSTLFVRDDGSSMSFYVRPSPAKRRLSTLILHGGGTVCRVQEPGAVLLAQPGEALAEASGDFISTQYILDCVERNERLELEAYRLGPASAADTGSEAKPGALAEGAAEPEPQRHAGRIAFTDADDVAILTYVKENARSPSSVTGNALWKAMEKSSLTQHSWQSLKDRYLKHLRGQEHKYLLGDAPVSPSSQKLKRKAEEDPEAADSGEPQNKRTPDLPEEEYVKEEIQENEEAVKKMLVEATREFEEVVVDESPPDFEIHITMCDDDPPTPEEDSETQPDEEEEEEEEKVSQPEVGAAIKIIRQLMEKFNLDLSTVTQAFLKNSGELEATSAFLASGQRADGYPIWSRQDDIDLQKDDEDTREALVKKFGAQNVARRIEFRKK

[5] = biological target: Telomeric Repeat binding Factor 2 (TRF2), full-length, N-terminal His6-tag (human); assay: SPR; TRF2 immobilised by amine coupling on ProteOn GLC chip; Rap1 as analyte (methods: 80-5 nM; key of Figure S4A: 160-10 nM); PBST; 240 s injection at 100 ul/min, 1200 s dissociation; equilibrium responses fitted with a simple bimolecular equilibrium model
Rap1 [6] = biological target: T1, Rap1; assay: EMSA; up to Rap1:DNA 40:1; FA: 50 mM NaCl, 50 mM sodium phosphate pH 7.0, 25 °C, 7.5 nM DNA; EMSA: same buffer, 15 min on ice, 5% (or 4%) PAGE in 0.25x TBE at 4 °C; SPR: PBST; details: protein: recombinant; tags: N-terminal His6; label: Alexa Fluor 488 at 3' end of one strand; blunt
Rap1 [7] = biological target: T1, Rap1; assay: SPR; PBST; FA: 50 mM NaCl, 50 mM sodium phosphate pH 7.0, 25 °C, 7.5 nM DNA; EMSA: same buffer, 15 min on ice, 5% (or 4%) PAGE in 0.25x TBE at 4 °C; SPR: PBST; details: protein: recombinant; tags: N-terminal His6; label: 5' biotin on S6; blunt

For TRF2 without His-tag (natural protein), which Kd [1] is on record?
Its Kd is 49 nM.

Which results are given for “Telomeric Repeat binding Factor 2 (TRF2), full-length, N-terminal His6-tag (natural protein)”?
Kd [2]: 64 nM; Kd [3]: 44 nM

B1: Overhang_SR2 (mixed)
DNA 1: CTAACTTAGGGTTAGGGTTAGGGTTAG
DNA 2: CTAACCCTAACCCTAAGTTAG
Does B1 bind (Rap1 [4])?
Result: no binding

B2: Repressor activator protein 1 (Rap1), full-length, N-terminal His6-tag (natural protein)
chain: MAEAMDLGKDPNGPTHSSTLFVRDDGSSMSFYVRPSPAKRRLSTLILHGGGTVCRVQEPGAVLLAQPGEALAEASGDFISTQYILDCVERNERLELEAYRLGPASAADTGSEAKPGALAEGAAEPEPQRHAGRIAFTDADDVAILTYVKENARSPSSVTGNALWKAMEKSSLTQHSWQSLKDRYLKHLRGQEHKYLLGDAPVSPSSQKLKRKAEEDPEAADSGEPQNKRTPDLPEEEYVKEEIQENEEAVKKMLVEATREFEEVVVDESPPDFEIHITMCDDDPPTPEEDSETQPDEEEEEEEEKVSQPEVGAAIKIIRQLMEKFNLDLSTVTQAFLKNSGELEATSAFLASGQRADGYPIWSRQDDIDLQKDDEDTREALVKKFGAQNVARRIEFRKK
For B2, which Kd [5] is on record?
The Kd was 44 nM.

B3: R5 (dsDNA)
DNA 1: GTTAGGGTTAGGGTTAGGGTTAGGGTTAGGGTTAG
DNA 2: CTAACCCTAACCCTAACCCTAACCCTAACCCTAAC
modifications: 3'-C6 aminoalkyl linker on one strand
Does B3 bind (Rap1 [6])?
Result: no binding

B4: R2 (dsDNA)
DNA 1: GTTAGGGTTAGGGTTAG
DNA 2: CTAACCCTAACCCTAAC
modifications: 3'-C6 aminoalkyl linker on one strand
Does B4 bind (Rap1 [6])?
Result: no binding

B5: SR2 (dsDNA)
DNA 1: CTAACTTAGGGTTAGGGTTAG
DNA 2: CTAACCCTAACCCTAAGTTAG
Does B5 bind (Rap1 [7])?
Result: no binding
